Experimental data from patent US20050256058A1.
Numbered stars: 1 amine (or outer) side, 2 acyl side, 3 side chain; on linkers, the order of the positions; unused ones are H or OH. Square brackets hold non-standard residues; d marks the D form. * marks the point of attachment. CH═CH‑CON(CH2Ph)2 = O=C(/C=C/*)N(Cc1ccccc1)Cc1ccccc1; CH═CH‑CON(CH3)CH2CH2Ph = CN(CCc1ccccc1)C(=O)/C=C/*; AAsp = aza-Asp, O=C(N(CC(=O)[*:3])N[*:1])[*:2]; CH═CH‑CON(CH3)CH2Ph = CN(Cc1ccccc1)C(=O)/C=C/*; CH═CH‑COOCH2Ph = O=C(/C=C/*)OCc1ccccc1; CH:CH‑COOEt = CCOC(=O)/C=C/*; CH═CH‑COOEt = CCOC(=O)/C=C/*; Cbz = O=C(OCc1ccccc1)*

T1: Caspase-6 (UniProt P55212)
T1 sequence (looked up): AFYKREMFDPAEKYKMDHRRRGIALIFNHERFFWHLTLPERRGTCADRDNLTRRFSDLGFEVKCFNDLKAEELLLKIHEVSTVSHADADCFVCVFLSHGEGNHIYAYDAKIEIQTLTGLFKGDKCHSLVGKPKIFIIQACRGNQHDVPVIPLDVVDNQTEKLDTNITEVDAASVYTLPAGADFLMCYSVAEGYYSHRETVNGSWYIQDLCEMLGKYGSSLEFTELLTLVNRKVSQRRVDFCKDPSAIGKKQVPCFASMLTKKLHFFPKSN

T2: Caspase-7 (UniProt P55210)
T2 sequence (looked up): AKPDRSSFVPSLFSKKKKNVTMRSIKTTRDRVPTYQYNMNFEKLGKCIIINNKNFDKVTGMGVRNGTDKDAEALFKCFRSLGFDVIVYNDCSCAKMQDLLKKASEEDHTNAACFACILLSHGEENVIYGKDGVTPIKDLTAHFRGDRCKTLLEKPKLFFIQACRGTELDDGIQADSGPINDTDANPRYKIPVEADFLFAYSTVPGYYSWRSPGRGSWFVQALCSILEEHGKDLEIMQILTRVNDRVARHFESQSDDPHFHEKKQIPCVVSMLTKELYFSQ

T3: Caspase-2 (UniProt P42575)
T3 sequence (looked up): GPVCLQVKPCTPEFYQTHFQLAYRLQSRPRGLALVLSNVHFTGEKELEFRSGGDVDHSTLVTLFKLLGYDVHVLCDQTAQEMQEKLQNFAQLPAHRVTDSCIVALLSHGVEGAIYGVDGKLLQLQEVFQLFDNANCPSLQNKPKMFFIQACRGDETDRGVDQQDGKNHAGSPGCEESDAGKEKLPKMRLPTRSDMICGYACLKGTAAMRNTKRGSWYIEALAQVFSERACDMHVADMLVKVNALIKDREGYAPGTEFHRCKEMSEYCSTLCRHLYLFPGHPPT

T4: Caspase-3 (UniProt P42574)
T4 sequence (looked up): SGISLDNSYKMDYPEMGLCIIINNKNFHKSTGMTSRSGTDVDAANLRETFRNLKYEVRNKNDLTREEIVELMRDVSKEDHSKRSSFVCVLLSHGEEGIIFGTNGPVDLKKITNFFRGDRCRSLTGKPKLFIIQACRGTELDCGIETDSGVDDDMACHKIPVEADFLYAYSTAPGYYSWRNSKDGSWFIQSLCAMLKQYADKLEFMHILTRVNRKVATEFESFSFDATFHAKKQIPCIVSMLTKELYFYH

T5: Caspase-10 (UniProt Q92851)
T5 sequence (looked up): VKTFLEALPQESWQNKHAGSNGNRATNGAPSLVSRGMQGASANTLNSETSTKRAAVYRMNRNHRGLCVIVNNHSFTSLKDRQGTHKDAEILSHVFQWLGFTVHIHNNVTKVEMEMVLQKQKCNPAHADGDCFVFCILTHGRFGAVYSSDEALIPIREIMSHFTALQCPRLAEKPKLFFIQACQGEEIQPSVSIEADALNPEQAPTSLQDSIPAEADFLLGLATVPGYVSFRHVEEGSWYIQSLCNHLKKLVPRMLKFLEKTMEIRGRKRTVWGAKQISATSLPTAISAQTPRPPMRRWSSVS

T6: Caspase-10, Q92851
T6 chain: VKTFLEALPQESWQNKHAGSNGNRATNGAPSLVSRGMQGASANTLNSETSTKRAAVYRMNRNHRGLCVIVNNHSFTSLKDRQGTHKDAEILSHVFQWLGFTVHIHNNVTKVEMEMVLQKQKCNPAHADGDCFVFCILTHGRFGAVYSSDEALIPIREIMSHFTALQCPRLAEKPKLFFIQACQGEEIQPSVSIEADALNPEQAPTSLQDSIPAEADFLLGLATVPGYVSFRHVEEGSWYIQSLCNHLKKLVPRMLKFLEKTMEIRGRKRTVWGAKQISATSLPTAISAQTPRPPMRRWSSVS

T7: Caspase-8, Q14790
T7 chain: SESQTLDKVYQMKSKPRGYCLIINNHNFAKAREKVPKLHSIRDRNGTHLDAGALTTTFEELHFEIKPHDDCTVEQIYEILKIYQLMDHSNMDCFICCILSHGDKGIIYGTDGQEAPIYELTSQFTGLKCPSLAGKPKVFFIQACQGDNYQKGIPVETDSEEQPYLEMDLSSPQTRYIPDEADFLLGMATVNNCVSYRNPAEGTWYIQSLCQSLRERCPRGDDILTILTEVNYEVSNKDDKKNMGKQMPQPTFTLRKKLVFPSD

T8: Caspase-6, P55212
T8 chain: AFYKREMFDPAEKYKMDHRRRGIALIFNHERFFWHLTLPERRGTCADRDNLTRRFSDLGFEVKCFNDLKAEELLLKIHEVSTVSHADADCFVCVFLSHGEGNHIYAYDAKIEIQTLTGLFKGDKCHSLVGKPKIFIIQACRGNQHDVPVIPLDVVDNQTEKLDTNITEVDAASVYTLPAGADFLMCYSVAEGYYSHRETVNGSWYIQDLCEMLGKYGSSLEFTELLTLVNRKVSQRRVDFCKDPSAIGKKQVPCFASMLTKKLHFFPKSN

T9: Caspase-7, P55210
T9 chain: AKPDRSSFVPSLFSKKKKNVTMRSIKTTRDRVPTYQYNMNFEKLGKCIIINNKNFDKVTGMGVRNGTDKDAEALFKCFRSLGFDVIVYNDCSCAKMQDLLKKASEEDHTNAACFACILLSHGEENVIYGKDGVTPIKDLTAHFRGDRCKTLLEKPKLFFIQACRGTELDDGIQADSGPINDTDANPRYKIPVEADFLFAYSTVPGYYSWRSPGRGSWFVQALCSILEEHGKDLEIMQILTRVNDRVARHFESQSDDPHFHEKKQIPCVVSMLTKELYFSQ

T10: Caspase-3, P42574
T10 chain: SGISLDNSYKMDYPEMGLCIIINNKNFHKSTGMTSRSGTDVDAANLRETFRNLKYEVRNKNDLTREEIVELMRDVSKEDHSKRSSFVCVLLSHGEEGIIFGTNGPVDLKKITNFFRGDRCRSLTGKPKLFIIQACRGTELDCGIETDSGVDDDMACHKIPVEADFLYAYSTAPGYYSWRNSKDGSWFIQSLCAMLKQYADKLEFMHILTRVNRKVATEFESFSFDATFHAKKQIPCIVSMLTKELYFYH

T11: Caspase-9, P55211
T11 chain: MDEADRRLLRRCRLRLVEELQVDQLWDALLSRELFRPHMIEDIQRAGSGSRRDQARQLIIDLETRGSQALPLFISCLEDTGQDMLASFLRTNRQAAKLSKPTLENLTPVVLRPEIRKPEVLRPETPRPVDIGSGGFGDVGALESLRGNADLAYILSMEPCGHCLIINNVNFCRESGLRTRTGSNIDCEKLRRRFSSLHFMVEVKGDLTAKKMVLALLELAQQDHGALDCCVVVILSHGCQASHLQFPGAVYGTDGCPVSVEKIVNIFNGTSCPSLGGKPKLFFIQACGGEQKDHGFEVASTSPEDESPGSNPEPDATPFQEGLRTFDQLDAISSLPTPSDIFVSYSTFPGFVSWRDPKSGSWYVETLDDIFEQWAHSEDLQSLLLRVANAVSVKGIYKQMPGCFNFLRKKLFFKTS


Key:
Test in all cases: cell-based or functional assay
Caspase-9 = Caspase-9 (UniProt P55211)
Caspase-6 = biological target: T1, Caspase-6
Caspase-7 = biological target: T2, Caspase-7
Caspase-8 = Caspase-8 (UniProt Q14790)
Caspase-2 = biological target: T3, Caspase-2
Caspase-3 = biological target: T4, Caspase-3
Caspase-10 = biological target: T5, Caspase-10
Caspase-10, Q92851 = biological target: T6, Caspase-10, Q92851
Caspase-8, Q14790 = biological target: T7, Caspase-8, Q14790
Caspase-6, P55212 = biological target: T8, Caspase-6, P55212
Caspase-7, P55210 = biological target: T9, Caspase-7, P55210
Caspase-3, P42574 = biological target: T10, Caspase-3, P42574
Caspase-9, P55211 = biological target: T11, Caspase-9, P55211

Binder	k2 (Caspase-9) [M⁻¹ s⁻¹]	k2 (Caspase-6) [M⁻¹ s⁻¹]	k2 (Caspase-7) [M⁻¹ s⁻¹]	k2 (Caspase-8) [M⁻¹ s⁻¹]	k2 (Caspase-2) [M⁻¹ s⁻¹]	k2 (Caspase-3) [M⁻¹ s⁻¹]	k2 (Caspase-10) [M⁻¹ s⁻¹]	k2 (Caspase-10, Q92851) [M⁻¹ s⁻¹]	k2 (Caspase-8, Q14790) [M⁻¹ s⁻¹]	k2 (Caspase-6, P55212) [M⁻¹ s⁻¹]	k2 (Caspase-7, P55210) [M⁻¹ s⁻¹]	k2 (Caspase-3, P42574) [M⁻¹ s⁻¹]	k2 (Caspase-9, P55211) [M⁻¹ s⁻¹]
Cbz-IET[AAsp]-{CH═CH‑CON(CH3)CH2Ph} (SMILES CC[C@H](C)[C@H](NC(=O)OCc1ccccc1)C(=O)N[C@@H](CCC(=O)O)C(=O)N[C@H](C(=O)NN(CC(=O)O)C(=O)/C=C/C(=O)N(C)Cc1ccccc1)[C@@H](C)O) [Cbz-Ile-Glu-Thr-AAsp-CH═CH-CON(CH3)CH2Ph]	845	45900	390	59700	95	6000	8500						
Cbz-VEV[AAsp]-{CH:CH‑COOEt} (SMILES CCOC(=O)/C=C/C(=O)N(CC(=O)O)NC(=O)[C@@H](NC(=O)[C@H](CCC(=O)O)NC(=O)[C@@H](NC(=O)OCc1ccccc1)C(C)C)C(C)C) [Cbz-Val-Glu-Val-AAsp-CH═CH-COOEt]	340	83600	3650	176000	115	41200	6600						
DEVD (modifications not checked) [Cbz-Asp-Glu-Val-AAsp-CH═CH-COOCH2Ph]								28300	121000	8470	114000	1.7e+06	
Cbz-IET[AAsp]-{CH═CH‑CONHCH2CH2Ph} [Cbz-Ile-Glu-Thr-AAsp-CH═CH-CONHCH2CH2Ph]	615	18700	440	71000	30	4750	8290						
DEVD (modifications not checked) [Cbz-Asp-Glu-Val-AAsp-CH═CH-CONHCH2Ph]								19400	78200	3210	249000	1.75e+06	2010
Cbz-IET[AAsp]-{CH═CH‑COOCH2Ph} (SMILES CC[C@H](C)[C@H](NC(=O)OCc1ccccc1)C(=O)N[C@@H](CCC(=O)O)C(=O)N[C@H](C(=O)NN(CC(=O)O)C(=O)/C=C/C(=O)OCc1ccccc1)[C@@H](C)O) [Cbz-Ile-Glu-Thr-AAsp-CH═CH-COOCH2Ph]		23400	660	148000	110	2300	15200						
Cbz-IET[AAsp]-{CH═CH‑COOEt} (SMILES CCOC(=O)/C=C/C(=O)N(CC(=O)O)NC(=O)[C@@H](NC(=O)[C@H](CCC(=O)O)NC(=O)[C@@H](NC(=O)OCc1ccccc1)[C@@H](C)CC)[C@@H](C)O) [Cbz-Ile-Glu-Thr-AAsp-CH═CH-COOEt]		88700	530	56500	300	6740	6900						
Cbz-IET[AAsp]-{CH═CH‑CONHPh} [Cbz-Ile-Glu-Thr-AAsp-CH═CH-CONHPh]	940	99200	920	245000	365	7030	9210						
Cbz-IET[AAsp]-{CH═CH‑CON(CH3)CH2CH2Ph} (SMILES CC[C@H](C)[C@H](NC(=O)OCc1ccccc1)C(=O)N[C@@H](CCC(=O)O)C(=O)N[C@H](C(=O)NN(CC(=O)O)C(=O)/C=C/C(=O)N(C)CCc1ccccc1)[C@@H](C)O) [Cbz-Ile-Glu-Thr-AAsp-CH═CH-CON(CH3)CH2CH2Ph]	760		1020	60500	38	5480	8770						
Cbz-IET[AAsp]-{CH═CH‑CONHCH2Ph} [Cbz-Ile-Glu-Thr-AAsp-CH═CH-CONHCH2Ph]	440	16800	100	61300	15	2250	503						
Cbz-IET[AAsp]-{CH═CH‑CON(CH2Ph)2} (SMILES CC[C@H](C)[C@H](NC(=O)OCc1ccccc1)C(=O)N[C@@H](CCC(=O)O)C(=O)N[C@H](C(=O)NN(CC(=O)O)C(=O)/C=C/C(=O)N(Cc1ccccc1)Cc1ccccc1)[C@@H](C)O) [Cbz-Ile-Glu-Thr-AAsp-CH═CH-CON(CH2Ph)2]	1930	83900	1140	39500	76	9570	7930						
